Experimental data: patent publication US20160311870A1 (SWEDISH ORPHAN BIOVITRUM AB PUBL, published 2016)

Target: T1, human complement component 5 (C5) (human, UniProt P01031 19-673; P01031 678-1676)
T1 construct: Bought human C5 (Quidel Cat #403 / A403); also called human C5; hC5
Experiment: BLI (ForteBio), compound captured on HSA sensor, human C5 in solution
Experimental: Human serum albumin was immobilized to Amine Reactive 2nd generation (AR2G) Dip and Read Biosensors (Pall Life sciences (ForteBio) Cat #18-5092) by amine coupling. […] Regeneration conditions for the sensors were 10 mM Glycine, pH 2 (three pulses with 30 seconds and running buffer for 60 seconds). Each spectrogram was reference subtracted against an analogous construct containing an albumin binding domain (SEQ ID NO: 250) but without the C5 binding capacity. The data were analyzed according to Langmuir 1:1 model using ForteBio Analysis 7.1 (Pall Life sciences (ForteBio) kinetics software).

B1: PSI0383 (designed binder)
chain: AEAKYAKEVLEAWDEIDRLPNLTIEQWLAFINKLDRQPEQSSELLSEAKKLSESQAPKVEGSLAEAKEAANAELDSYGVSDFYKRLIDKAKTVEGVEALKDAILAALP
notes: N52S, D53E, D60E and loop changes D36R, D37Q, S39E against PSI0242
- Rel. KD (KD relative to PSI0242): 2.1
